pKd: −log10 of the molar value.
Columns and labels:
[1] = molecular target: cardiac ryanodine receptor (RyR2) (rat (endogenous in rat ventricular myocytes)) (UniProt B0LPN4); experiment: confocal fluorescence wash-in and wash-out kinetics
[2] = molecular target: cardiac ryanodine receptor (RyR2) (rat (endogenous in rat ventricular myocytes)) (UniProt B0LPN4); experiment: other fluorescence titration
[3] = molecular target: cardiac ryanodine receptor (RyR2) (rat (endogenous in rat ventricular myocytes)) (UniProt B0LPN4); experiment: FRET or BRET
[4] = molecular target: cardiac ryanodine receptor (RyR2) (rat (endogenous in rat ventricular myocytes)) (UniProt B0LPN4); experiment: FRET or BRET; remark: listed apart in the source

Chain of UniProt B0LPN4 (B0LPN4 whole entry): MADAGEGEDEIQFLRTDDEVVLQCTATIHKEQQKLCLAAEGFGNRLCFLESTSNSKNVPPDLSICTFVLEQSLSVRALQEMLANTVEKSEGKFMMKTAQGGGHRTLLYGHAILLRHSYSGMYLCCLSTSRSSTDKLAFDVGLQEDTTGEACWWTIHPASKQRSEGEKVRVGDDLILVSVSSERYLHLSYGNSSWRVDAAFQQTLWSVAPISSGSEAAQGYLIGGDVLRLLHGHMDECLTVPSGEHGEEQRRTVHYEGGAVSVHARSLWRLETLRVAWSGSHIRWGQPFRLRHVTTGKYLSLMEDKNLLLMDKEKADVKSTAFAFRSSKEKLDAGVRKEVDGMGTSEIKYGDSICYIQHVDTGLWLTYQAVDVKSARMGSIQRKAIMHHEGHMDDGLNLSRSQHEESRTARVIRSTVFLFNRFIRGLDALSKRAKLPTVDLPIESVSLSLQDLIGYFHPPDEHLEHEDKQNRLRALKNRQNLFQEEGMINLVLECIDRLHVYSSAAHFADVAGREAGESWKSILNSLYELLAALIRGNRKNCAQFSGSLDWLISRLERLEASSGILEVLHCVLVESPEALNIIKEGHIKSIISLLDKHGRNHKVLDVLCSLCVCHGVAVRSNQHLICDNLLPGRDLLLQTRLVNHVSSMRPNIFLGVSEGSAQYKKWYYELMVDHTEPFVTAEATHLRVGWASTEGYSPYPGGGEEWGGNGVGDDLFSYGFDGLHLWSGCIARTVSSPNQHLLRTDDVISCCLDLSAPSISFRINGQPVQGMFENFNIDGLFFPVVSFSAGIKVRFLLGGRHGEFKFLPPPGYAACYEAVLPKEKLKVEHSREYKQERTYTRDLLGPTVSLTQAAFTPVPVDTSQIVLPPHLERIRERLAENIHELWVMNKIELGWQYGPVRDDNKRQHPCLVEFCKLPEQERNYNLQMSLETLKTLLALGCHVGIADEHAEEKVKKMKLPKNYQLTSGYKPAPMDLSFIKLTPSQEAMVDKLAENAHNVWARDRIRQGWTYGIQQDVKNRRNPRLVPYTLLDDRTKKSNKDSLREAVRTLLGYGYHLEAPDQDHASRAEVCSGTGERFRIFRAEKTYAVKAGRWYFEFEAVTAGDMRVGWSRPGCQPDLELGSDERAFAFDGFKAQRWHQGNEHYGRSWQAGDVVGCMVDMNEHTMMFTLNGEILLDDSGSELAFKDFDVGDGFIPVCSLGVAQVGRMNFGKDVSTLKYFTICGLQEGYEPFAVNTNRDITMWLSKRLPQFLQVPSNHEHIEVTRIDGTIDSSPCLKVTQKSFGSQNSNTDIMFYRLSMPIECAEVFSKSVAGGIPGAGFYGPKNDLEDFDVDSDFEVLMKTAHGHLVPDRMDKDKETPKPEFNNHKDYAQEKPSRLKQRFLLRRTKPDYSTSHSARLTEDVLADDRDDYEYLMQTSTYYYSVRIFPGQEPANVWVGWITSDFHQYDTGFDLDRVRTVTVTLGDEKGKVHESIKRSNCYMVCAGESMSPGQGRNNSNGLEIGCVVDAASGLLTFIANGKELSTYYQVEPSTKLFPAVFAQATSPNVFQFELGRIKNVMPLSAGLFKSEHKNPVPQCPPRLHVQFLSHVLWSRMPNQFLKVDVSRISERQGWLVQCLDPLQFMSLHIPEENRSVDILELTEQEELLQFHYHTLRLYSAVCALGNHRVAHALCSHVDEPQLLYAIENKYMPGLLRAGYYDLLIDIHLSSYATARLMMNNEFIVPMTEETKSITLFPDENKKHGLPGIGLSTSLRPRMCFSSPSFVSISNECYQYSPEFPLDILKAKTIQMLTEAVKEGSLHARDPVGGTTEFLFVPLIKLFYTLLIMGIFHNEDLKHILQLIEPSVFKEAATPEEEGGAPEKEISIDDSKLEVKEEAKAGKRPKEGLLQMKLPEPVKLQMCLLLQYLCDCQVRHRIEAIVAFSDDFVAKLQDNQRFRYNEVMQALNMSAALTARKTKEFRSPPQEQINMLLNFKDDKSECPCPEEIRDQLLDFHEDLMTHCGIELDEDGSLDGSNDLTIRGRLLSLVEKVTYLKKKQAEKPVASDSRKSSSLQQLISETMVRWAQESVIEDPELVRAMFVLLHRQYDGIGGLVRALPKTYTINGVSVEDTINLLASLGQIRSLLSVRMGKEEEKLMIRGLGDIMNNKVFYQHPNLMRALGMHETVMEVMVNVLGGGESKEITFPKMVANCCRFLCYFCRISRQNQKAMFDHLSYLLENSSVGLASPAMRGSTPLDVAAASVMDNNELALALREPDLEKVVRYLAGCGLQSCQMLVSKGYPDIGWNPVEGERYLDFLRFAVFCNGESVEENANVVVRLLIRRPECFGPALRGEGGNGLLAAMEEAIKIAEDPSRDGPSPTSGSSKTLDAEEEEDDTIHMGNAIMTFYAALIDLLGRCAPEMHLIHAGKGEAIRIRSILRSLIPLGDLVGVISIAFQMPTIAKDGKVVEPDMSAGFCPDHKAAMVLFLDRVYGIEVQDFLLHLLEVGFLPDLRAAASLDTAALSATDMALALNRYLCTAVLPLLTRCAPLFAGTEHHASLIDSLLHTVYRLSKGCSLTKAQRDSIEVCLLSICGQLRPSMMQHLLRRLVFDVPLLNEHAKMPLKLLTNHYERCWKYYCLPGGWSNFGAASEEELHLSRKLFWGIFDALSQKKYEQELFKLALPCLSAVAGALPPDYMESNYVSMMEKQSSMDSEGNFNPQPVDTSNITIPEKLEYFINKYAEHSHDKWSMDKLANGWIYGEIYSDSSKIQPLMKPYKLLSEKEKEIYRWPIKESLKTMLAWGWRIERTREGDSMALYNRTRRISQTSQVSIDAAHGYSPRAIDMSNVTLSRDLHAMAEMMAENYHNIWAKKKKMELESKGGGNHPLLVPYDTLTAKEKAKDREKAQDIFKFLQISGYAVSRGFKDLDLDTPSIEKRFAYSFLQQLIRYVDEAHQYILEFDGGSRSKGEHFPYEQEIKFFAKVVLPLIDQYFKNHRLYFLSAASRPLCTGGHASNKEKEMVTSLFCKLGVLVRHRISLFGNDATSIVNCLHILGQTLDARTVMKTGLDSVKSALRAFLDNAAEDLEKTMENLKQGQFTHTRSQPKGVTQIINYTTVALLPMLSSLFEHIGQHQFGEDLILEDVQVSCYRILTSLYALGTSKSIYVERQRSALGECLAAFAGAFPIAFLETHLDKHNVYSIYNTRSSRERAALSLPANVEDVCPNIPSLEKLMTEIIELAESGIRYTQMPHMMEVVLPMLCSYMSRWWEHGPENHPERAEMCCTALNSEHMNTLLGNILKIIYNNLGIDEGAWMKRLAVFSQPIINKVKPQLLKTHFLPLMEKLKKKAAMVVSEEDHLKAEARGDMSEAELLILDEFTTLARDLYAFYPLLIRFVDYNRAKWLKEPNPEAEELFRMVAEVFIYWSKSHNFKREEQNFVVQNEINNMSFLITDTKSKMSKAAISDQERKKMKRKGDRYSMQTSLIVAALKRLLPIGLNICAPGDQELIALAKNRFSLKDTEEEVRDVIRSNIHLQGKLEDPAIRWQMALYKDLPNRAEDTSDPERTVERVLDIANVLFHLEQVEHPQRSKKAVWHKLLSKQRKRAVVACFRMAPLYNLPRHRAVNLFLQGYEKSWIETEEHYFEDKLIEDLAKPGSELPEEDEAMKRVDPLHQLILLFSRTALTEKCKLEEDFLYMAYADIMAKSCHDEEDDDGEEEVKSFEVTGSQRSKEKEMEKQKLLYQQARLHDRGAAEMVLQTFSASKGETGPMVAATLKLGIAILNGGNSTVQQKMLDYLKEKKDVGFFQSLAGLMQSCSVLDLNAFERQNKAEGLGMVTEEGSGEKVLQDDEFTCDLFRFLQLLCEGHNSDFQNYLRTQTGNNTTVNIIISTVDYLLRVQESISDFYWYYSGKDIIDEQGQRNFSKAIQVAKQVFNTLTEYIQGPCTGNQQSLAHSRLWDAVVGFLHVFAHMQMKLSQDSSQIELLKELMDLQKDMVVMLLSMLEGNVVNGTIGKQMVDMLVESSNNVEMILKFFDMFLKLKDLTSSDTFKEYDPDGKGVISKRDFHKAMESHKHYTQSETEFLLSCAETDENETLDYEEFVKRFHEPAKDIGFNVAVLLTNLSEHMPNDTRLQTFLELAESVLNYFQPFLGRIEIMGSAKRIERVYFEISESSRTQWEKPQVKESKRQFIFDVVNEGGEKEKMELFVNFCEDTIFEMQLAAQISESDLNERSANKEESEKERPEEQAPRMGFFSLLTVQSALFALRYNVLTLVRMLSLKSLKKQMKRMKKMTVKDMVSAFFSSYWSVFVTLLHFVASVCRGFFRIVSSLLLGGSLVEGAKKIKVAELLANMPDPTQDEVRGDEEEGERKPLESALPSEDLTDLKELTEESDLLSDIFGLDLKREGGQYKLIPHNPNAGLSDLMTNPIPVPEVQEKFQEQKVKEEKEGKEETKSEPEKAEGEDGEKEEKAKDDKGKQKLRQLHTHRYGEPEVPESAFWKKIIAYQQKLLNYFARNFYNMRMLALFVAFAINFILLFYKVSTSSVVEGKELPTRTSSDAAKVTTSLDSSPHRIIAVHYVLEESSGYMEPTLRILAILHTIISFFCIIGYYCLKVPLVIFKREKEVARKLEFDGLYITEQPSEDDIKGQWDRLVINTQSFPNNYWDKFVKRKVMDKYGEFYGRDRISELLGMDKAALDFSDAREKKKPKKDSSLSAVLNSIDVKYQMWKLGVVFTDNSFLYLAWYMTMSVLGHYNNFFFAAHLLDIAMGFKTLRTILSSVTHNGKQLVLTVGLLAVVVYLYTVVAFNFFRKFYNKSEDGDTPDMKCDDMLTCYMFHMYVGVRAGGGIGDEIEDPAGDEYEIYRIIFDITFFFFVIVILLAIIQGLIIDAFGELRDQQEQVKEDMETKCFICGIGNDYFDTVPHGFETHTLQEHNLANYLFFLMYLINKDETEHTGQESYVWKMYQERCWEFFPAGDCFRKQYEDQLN

Row | fold faster association after pre-saturation with NF-DPc10 against control [1] | percent faster τ (wash-in) with ryanodine plus caffeine against control [1] | pKd [2] | stoichiometry N (DPc10 per RyR2 monomer) [2] | pKd [3] | pKd [4] | Substance
1 | 2 fold | 21% | 6.32 | 1 | – | – | DPc10 labeled with 5-carboxyfluorescein at its N-terminus (F-DPc10) (peptide)
2 | – | – | – | – | 6.35 | 6.21 | DPc10 labeled with HiLyte Fluor 647 on the N-terminus (HF647-DPc10) (peptide)

From paper PMC3573756
